Test system: CXCR4-B16 cells
Assay: adhesion of CXCR4-B16 cells to resting DMEC in parallel plate flow chamber
Type: cell-based, murine
Conditions: exogenously added chemokine
Experimental: Prior to interaction with tumor cells, resting confluent DMEC or LMEC were exposed to 100 ng/ml of recombinant CXCL12 or CCL21 for 15 min at 20° C. as described (Cinamon et al., Nat. Immunol. 2: 515-22 (2001)). After unbound chemokine was washed away, calcein-AM-labeled (Molecular Probes, Eugene, Oreg.) CXCR4- or pLNCX2-B16 cells (2.5×10^5/ml in B16 medium) were injected at 1.5 dynes/cm^2 into a parallel plate flow chamber (Glycotech, Gaithersburg, Md.) containing confluent DMEC or LMEC. In some cases, tumor cells were treated with pertussis toxin (PTX, Calbiochem, San Diego, Calif.) at 100 ng/ml for 2 hours at 37° C. to block Gi-protein-coupled signaling. After two min, flow was stopped, which enabled B16 cells to interact with MEC in the absence of shear stress. After 5 min, shear was re-established at 1.5 dynes/cm^2 for up to 2 min in order to detach unbound cells; adherent cells were digitally photographed in 5-6 random fields (each field=1.18 mm^2) with excitation at 488 nm and emission at 513 nm using sufficient exposure time (˜1 s) to allow distinction between non-moving and moving cells (which appeared as dim streaks) (Fitzhugh et al. (2000), supra). Cells were then counted with the software program IPlab (Scanalytics, Fairfax, Va.). […]

B1: CCL21: recombinant chemokine used as control on DMEC (protein, UniProt O00585 24-134, looked up)
C-C motif chemokine 21: SDGGAQDCCLKYSQRKIPAKVVRSYRKQEPSLGCSIPAILFLPRKRSQAELCADPKELWVQQLMQHLDKTPSPQKPAQGCRKDRGASKTGKKGKGSKGCKRTERSQTPKGP
  stimulation of adhesion of CXCR4-B16 cells to DMEC: no effect
